For series [1], the target named is T1, EBOV VP35 RBD (Ebola virus, UniProt Q05127 216-340). As to the kind of experiment: dual-filter dot blot; Hill 2.9±0.3; 10 mM Tris pH 8.0, 200 mM NaCl, 2 mM TCEP ([…], and ITC); temperature not stated. Particulars: protein: recombinant; tags: 6xHis, cleaved; label: 5'-32P sense strand (dot blot); none in ITC; blunt.
Series [2] addresses T2, RESTV VP35 RBD (Reston virus (RESTV), UniProt Q8JPY0 205-329).
T2 sequence: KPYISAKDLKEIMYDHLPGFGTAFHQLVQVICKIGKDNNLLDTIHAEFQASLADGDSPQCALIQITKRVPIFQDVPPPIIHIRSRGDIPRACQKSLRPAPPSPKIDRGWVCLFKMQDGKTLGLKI
As to the kind of experiment: dual-filter dot blot; Hill 2.6±0.2; 10 mM Tris pH 8.0, 200 mM NaCl, 2 mM TCEP ([…], and ITC); temperature not stated. Particulars: protein: recombinant; tags: 6xHis, cleaved; chain copies: 2; label: 5'-32P sense strand (dot blot); none in ITC; blunt.

Series [3] deals with T3, MARV VP35 RBD (Marburg virus, UniProt P35259 205-329). As to the kind of experiment: dual-filter dot blot; Hill 3.5±0.3; 10 mM Tris pH 8.0, 200 mM NaCl, 2 mM TCEP ([…], and ITC); temperature not stated. Particulars: protein: recombinant; tags: 6xHis (pET46b), TEV-cleaved; chain copies: 4; label: 5'-32P sense strand (dot blot); none in ITC; blunt.
Series [4] addresses T3, MARV VP35 RBD. As to the kind of experiment: ITC; 10 mM Tris pH 8.0, 200 mM NaCl, 2 mM TCEP ([…], and ITC); temperature not stated. To be noted: protein: recombinant, tags: 6xHis (pET46b), TEV-cleaved, chain copies: 4, label: 5'-32P sense strand (dot blot), none in ITC. On the technique in general: Isothermal titration calorimetry measures the heat released or taken up as one component is titrated into another.

Series [5] has as its target T3, MARV VP35 RBD. As to the kind of experiment: X-ray crystal structure; 10 mM Tris pH 8.0, 200 mM NaCl, 2 mM TCEP ([…], and ITC); temperature not stated. To be noted: protein: recombinant; tags: 6xHis (pET46b), TEV-cleaved; chain copies: 4.
The target of series [6] is T2, RESTV VP35 RBD. Briefly: dual-filter dot blot; Hill 3.4±0.4; 10 mM Tris pH 8.0, 200 mM NaCl, 2 mM TCEP ([…], and ITC); temperature not stated. Particulars: protein: recombinant; tags: 6xHis, cleaved; chain copies: 2; label: 5'-32P sense strand (dot blot); none in ITC.
Series [7] has as its target T3, MARV VP35 RBD. Briefly: dual-filter dot blot; Hill 3.1±0.2; 10 mM Tris pH 8.0, 200 mM NaCl, 2 mM TCEP ([…], and ITC); temperature not stated. Particulars: protein: recombinant; tags: 6xHis (pET46b), TEV-cleaved; chain copies: 4; label: 5'-32P sense strand (dot blot); none in ITC.
For series [8], the target named is T1, EBOV VP35 RBD. Briefly: dual-filter dot blot; Hill 3.6±0.4; 10 mM Tris pH 8.0, 200 mM NaCl, 2 mM TCEP ([…], and ITC); temperature not stated. To be noted: protein: recombinant; tags: 6xHis, cleaved; label: 5'-32P sense strand (dot blot); none in ITC.
Series [9] deals with T3, MARV VP35 RBD. Briefly: dual-filter dot blot; Hill 2.1±0.2; 10 mM Tris pH 8.0, 200 mM NaCl, 2 mM TCEP ([…], and ITC); temperature not stated. To be noted: protein: recombinant; tags: 6xHis (pET46b), TEV-cleaved; chain copies: 4; label: 5'-32P sense strand.

Experimental findings from publication PMC3441732, “Marburg Virus VP35 Can Both Fully Coat the Backbone and Cap the Ends of dsRNA for Interferon Antagonism” are described below.

As usually defined, the Kd is the equilibrium constant for the complex coming apart.

T3 sequence (P35259 205-329): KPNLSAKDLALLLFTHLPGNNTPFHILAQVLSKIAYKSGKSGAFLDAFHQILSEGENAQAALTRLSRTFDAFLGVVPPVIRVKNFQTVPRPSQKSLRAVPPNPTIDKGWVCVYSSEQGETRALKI
T1 sequence (Q05127 216-340): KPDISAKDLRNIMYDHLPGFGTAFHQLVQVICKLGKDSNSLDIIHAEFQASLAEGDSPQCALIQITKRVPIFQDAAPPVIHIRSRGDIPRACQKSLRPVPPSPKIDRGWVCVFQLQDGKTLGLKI

B1: 18-bp blunt-ended dsRNA (dsRNA)
RNA 1: AGAAGGAGGGAGGGAGGA
RNA 2: UCCUCCCUCCCUCCUUCU
For B1, the dissociation constant Kd with EBOV VP35 RBD [1] was 1.9 ± 0.1 µM; with RESTV VP35 RBD [2], 2.5 ± 0.1 µM; with MARV VP35 RBD [3] it was 8.4 ± 0.2 µM; in the series with MARV VP35 RBD [4] (blunt) it was 28.6 ± 16.5 µM.

B2: 12-bp palindromic dsRNA (crystal) (dsRNA)
RNA 1: CUAGACGUCUAG
RNA 2: CUAGACGUCUAG
As for B2, the binding result with MARV VP35 RBD [5] is given as “binds”.

B3: 18-bp dsRNA with 3' overhang (dsRNA)
RNA 1: AGAAGGAGGGAGGGAGGAGAG
RNA 2: CUCUCCUCCCUCCCUCCUUCU
As to B3, the dissociation constant (Kd) in the series with RESTV VP35 RBD [6] came out at 6 ± 0.2 µM; with MARV VP35 RBD [7], 9.3 ± 0.2 µM; with MARV VP35 RBD [4], 3.4 µM; with EBOV VP35 RBD [8], 17.1 ± 0.7 µM.

B4: 18-bp dsRNA with 5' overhang (dsRNA)
RNA 1: GAGAGAAGGAGGGAGGGAGGA
RNA 2: UCCUCCCUCCCUCCUUCUCUC
B4: the Kd with MARV VP35 RBD [9] was determined as 4.4 ± 0.3 µM.
